Blank lines part the entries; values can stand above or below the molecule they belong to.
Columns and labels:
[1] = molecular target: T1, purified recombinant human CTLA-4 (human, UniProt P16410 36-161, limits assumed); test: competitive ELISA on CTLA-4: unlabelled IgG 0-6666 ng/ml against biotin-labelled 3A4
T1 construct: also called purified CTLA-4; purified recombinant CTLA-4
T1 sequence (looked up): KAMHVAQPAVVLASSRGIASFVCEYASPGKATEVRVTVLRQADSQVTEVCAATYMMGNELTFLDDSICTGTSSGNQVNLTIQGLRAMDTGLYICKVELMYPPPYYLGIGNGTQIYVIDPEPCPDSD

[2] = molecular target: T1, purified recombinant human CTLA-4; test: competitive ELISA on CTLA-4: unlabelled IgG 0-6666 ng/ml against biotin-labelled BNI 3.1
[3] = molecular target: human CTLA-4 expressed on cells (human) (UniProt P16410); test: flow cytometry (FACScan), cell line expressing recombinant CTLA-4, FITC-anti human IgG
[4] = molecular target: murine CTLA-4 (murine) (UniProt P09793); test: as above
[5] = molecular target: macaque CTLA-4 (macaque); test: as above

murine CTLA-4 (murine), sequence (P09793 36-223): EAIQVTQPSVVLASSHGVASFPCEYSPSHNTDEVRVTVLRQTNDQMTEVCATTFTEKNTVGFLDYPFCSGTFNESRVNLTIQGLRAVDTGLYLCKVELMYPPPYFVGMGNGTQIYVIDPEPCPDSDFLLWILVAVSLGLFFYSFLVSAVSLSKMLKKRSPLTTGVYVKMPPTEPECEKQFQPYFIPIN

IC50 (read off the curve) [1]: 0.09 µg/mL | IC50 (read off the curve) [2]: 0.5 µg/mL
Molecule: BNI3 (antibody)

MFI [3]: 3 MFI | MFI [4]: 5 MFI | MFI [5]: 4 MFI
Molecule: isotype control (Table 5) (antibody)

IC50 (read off the curve) [1]: ~0.2 µg/mL
B1: 1E2 (antibody, V domains shown)
VH: QVQLVESGGGVVQPGRSLRLSCAASGFTFSSYGMHWVRQAPGKGLEWVAVIWYDGSNKYYADSVKGRFTISRDNSKNTLYLQMNSLRAEDTAVFYCARAPNYIGAFDVWGQGTMVTVSS
VL: DIQMTQSPSSLSASVGDRVTITCRASQGISSWLAWYQQKPEKAPKSLIYAASSLQSGVPSRFSGSGSGTDFTLTISSLQPEDFATYYCQQYNSYPPTFGQGTKVEIK
notes: Human anti-CTLA-4 monoclonal antibody

— patent publication US20020086014A1 (Bristol-Myers Squibb, published 2002)
